For one series, the target named is T1, C12-279 D352R (synthetic construct, D352R).
T1 chain: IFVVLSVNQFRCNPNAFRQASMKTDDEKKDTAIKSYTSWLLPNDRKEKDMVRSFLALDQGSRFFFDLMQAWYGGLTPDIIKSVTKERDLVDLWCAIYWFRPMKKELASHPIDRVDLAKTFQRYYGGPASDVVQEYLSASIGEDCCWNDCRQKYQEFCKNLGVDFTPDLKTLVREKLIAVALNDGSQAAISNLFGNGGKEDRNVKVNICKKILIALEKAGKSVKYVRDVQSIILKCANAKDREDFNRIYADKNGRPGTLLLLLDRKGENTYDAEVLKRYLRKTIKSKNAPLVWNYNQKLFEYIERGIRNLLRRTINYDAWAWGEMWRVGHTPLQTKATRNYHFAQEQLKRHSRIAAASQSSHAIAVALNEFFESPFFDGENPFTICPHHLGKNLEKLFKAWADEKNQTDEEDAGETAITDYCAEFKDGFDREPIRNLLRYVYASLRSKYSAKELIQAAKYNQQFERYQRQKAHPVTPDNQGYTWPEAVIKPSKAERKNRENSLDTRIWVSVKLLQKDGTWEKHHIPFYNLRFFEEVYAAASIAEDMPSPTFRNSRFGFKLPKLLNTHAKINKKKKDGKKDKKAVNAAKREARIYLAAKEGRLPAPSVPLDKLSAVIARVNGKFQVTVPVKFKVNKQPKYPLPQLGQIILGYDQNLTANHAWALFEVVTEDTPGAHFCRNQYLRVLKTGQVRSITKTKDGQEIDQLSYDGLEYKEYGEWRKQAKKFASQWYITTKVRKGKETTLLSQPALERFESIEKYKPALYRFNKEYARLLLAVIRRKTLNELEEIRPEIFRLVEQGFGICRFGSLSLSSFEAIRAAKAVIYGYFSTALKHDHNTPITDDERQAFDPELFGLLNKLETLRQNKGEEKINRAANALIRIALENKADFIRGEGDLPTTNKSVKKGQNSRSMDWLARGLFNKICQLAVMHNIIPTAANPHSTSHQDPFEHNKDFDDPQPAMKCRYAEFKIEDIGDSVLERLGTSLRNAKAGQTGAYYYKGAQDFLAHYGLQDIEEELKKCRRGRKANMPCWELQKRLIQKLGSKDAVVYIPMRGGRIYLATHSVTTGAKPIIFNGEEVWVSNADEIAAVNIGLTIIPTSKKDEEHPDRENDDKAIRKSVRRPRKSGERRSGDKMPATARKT
In words: cell_activity; PAM TTG; +/-0.22. Here is the method: (§1) Transfection: transfection was performed 12-14 h after plating. 1.5 μL PEI (Yeasen Biotechnology, 40815ES03, Polyethylenimine Linear (PEI) MW25000) and 500 ng mutation clone plasmid were added to 100 μL Opti-MEM per well of the 24-well plate, mixed, and added to the NAAN cell line for cell transfection after placing at room temperature for 20 min. After overnight transfection, a fresh culture medium was replaced, and the culture was continued for 72 h, followed by flow cytometry. Editing efficiencies of different mutant clones were characterized by the proportion of GFP-positive cells.
(§2) Editing efficiency of some selected mutants was tested in Reporter3 cell line using the same manner as described for the NAAN reporter system, except that the cell line was changed from NAAN cell line to Reporter3 cell line.

Another series has as its target T2, C12-279 Mut-03 (synthetic construct, G184R,Q186R,D352R).
T2 chain: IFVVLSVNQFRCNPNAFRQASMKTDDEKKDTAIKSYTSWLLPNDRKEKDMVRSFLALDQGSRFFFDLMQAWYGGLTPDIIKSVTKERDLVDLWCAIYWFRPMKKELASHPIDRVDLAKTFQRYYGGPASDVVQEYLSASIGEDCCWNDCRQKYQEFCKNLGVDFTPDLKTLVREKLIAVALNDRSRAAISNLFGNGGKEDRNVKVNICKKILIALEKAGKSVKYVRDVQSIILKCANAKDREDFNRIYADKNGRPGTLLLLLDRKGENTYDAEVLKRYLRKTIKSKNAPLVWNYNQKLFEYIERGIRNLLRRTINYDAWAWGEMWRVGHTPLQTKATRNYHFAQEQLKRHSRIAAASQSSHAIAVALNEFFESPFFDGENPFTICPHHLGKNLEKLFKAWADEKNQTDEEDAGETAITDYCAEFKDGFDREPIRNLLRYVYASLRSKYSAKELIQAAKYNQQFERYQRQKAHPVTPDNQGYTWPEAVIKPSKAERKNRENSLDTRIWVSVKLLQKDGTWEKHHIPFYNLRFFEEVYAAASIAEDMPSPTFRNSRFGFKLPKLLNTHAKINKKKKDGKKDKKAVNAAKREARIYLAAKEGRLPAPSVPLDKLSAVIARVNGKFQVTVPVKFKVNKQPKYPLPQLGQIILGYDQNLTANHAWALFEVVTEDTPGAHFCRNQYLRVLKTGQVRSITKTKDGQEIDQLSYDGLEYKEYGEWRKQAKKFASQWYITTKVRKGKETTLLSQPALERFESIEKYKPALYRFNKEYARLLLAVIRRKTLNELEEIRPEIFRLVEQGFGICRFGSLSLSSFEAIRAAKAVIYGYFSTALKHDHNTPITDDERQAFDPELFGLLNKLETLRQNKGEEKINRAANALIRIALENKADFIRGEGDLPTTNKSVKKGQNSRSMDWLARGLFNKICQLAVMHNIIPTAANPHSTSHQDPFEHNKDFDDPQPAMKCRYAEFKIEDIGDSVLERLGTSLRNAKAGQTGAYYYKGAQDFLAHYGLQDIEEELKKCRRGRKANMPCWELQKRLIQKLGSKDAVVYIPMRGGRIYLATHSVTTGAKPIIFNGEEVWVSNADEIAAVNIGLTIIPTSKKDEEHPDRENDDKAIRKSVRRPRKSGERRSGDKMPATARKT
In words: cell_activity; PAM TTG. On the procedure: as §1, §2

B1: C12-279 Reporter3 sgRNA ; Reporter3 target (ssRNA ; dsDNA)
RNA: GUAAUGCGUCUCCCAUUGACGCCUCACCUCGCGACGCAAUGAUG
DNA 1: CTCACCTCGCGACGCAATGATG
DNA 2: CATCATTGCGTCGCGAGGTGAG
Turning to B1, the binding signal with C12-279 D352R was 1.18 fold of C12-279; with C12-279 Mut-03, 2.28 fold of C12-279.

Values taken from patent US20260009052, “CAS12 PROTEINS AND USES THEREOF” (GUANGZHOU REFORGENE MEDICINE CO., LTD., published 2026).
